Results reported in patent US20230272099A1 (Chugai, published 2023).
Numbering of substitutions follows the chain as printed.

T1: human FcgRIIa type H extracellular domain (human, UniProt P12318 34-217)
T1 construct: extracellular domain; also called hFcgRIIaH
T1 sequence (looked up): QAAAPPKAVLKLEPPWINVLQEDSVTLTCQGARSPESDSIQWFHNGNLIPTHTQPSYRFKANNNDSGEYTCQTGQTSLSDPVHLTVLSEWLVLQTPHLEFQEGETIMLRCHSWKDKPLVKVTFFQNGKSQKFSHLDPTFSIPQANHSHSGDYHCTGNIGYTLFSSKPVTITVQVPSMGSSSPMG

T2: human FcgRIIa type R extracellular domain (human, UniProt P12318 34-217)
T2 construct: extracellular domain; also called hFcgRIIaR
T2 sequence (looked up): T1 sequence (looked up) with H134R

T3: human FcgRIIb extracellular domain (human, UniProt P31994 43-217)
T3 construct: extracellular domain; also called hFcgRIIb
T3 sequence (looked up): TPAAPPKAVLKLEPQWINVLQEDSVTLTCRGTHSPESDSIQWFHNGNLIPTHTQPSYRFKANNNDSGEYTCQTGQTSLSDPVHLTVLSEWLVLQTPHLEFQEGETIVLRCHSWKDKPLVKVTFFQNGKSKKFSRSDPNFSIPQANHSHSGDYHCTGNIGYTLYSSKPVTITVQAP

B1: A375-MY518a/B167-Lamlib (antibody, human IgG1, lambda)
heavy: EVQLVESGGGLVKPGGSLRLSCAASGFTFSTFTMNWVRQAPGKGLEWVSSISSKSTYIEYADSFKVRFTISRDNAKNSLYLQMNSLRAEDTAVYYCARYGAKNFLNWVFDYWGQGTLVTVSSASTKGPSVFPLAPSSKSTSGGTAALGCLVKDYFPEPVTVSWNSGALTSGVHTFPAVLQSSGLYSLSSVVTVPSSSLGTQTYICNVNHKPSNTKVDKRVEPKSCDKTHTCPPCPAPELWNGPSVFLFPPKPKDTLMISRTPEVTCVVVDVSDEDPEVKFNWYVDGVEVHNAKTKPREELYNSTYRVVSVLTVLHQDWLNGKEYKCKVSNTALPKPIEKTISKAKGQPREPQVYTLPPSREEMTKNQVSLTCLVKGFYPSDIAVEWESNGQPENNYKTTPPVLDSDGSFFLYSKLTVDKSRWQQGNVFSCSVMHEALHNHYTQKSLSLSP
light: QSALTQPPSASGSPGQTVTISCTGTRYDVGYYEYVSWYQQHPGKAPKLMIYETSKRLSGVPDRFSGSKSGNTASLTVSGLQAEDEADYYCSSYRYEHQVSFGGGTKLTVLGQPKAAPSVTLFPPSSEELQANKATLVCLISDFYPGAVTVAWKADSSPVKAGVETTTPSKQSNNKYAASSYLSLTPEQWKSHRSYSCQVTHEGSTVEKTVAPTECS
notes: copies: 2 + 2
B2: A375-P253/B167-Lamlib (antibody, human IgG1, lambda)
heavy: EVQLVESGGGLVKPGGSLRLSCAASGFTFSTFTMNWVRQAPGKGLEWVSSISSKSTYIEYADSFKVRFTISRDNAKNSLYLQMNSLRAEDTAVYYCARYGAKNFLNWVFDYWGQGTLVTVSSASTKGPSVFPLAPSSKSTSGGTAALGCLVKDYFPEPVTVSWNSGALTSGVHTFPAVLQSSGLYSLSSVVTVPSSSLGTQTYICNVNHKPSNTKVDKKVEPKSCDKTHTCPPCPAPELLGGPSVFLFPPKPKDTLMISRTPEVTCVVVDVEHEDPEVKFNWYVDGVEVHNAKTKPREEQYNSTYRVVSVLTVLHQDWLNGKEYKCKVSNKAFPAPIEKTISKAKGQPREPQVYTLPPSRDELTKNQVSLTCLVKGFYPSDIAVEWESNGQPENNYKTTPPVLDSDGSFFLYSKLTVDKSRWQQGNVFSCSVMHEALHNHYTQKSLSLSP
light: B1 light
notes: copies: 2 + 2
B3: A375-SCF025/B167-Lamlib (antibody, human IgG1, lambda)
heavy: B1 heavy with R219K, P348R, D418K
light: B1 light
B4: A375-P587/B167-Lamlib (antibody, human IgG1, lambda)
heavy: EVQLVESGGGLVKPGGSLRLSCAASGFTFSTFTMNWVRQAPGKGLEWVSSISSKSTYIEYADSFKVRFTISRDNAKNSLYLQMNSLRAEDTAVYYCARYGAKNFLNWVFDYWGQGTLVTVSSASTKGPSVFPLAPSSKSTSGGTAALGCLVKDYFPEPVTVSWNSGALTSGVHTFPAVLQSSGLYSLSSVVTVPSSSLGTQTYICNVNHKPSNTKVDKKVEPKSCDKTHTCPPCPAPDLLGGDSVFLFPPKPKDTLMISRTPEVTCVVIDVAEEDGEVKFNWYVDGVEVHNAKTKPREEQYNSTYRVVSVLTVLHQDWLNGKEYKCKVSNKALPAPIEKTISKAKGQPREPQVYTLPPSRDELTKNQVSLTCLVKGFYPSDIAVEWESNGQPENNYKTTPPVLDSDGSFFLYSKLTVDKSRWQQGNVFSCSVMHEALHNHYTQKSLSLSP
light: B1 light
notes: copies: 2 + 2
B5: A375-SCF025a/B167-Lamlib (antibody, human IgG1, lambda)
heavy: B1 heavy with P348R, D418K
light: B1 light
B6: A375-SCF027/B167-Lamlib (antibody, human IgG1, lambda)
heavy: EVQLVESGGGLVKPGGSLRLSCAASGFTFSTFTMNWVRQAPGKGLEWVSSISSKSTYIEYADSFKVRFTISRDNAKNSLYLQMNSLRAEDTAVYYCARYGAKNFLNWVFDYWGQGTLVTVSSASTKGPSVFPLAPSSKSTSGGTAALGCLVKDYFPEPVTVSWNSGALTSGVHTFPAVLQSSGLYSLSSVVTVPSSSLGTQTYICNVNHKPSNTKVDKKVEPKSCDKTHTCPPCPAPEYLGGDSVFLFPPKPKDVLMISRTPEVTCVVIDVSHEDPEVKFNWYVDGVEVHNAKTKPREEQYNSTYRVVSVLPVLHQDWLNGKEYKCKVSNKALPKPIEKTISKAKGQRREPQVYTLPPSREEMTKNQVSLTCLVKGFYPSDIAVEWESNGQPENNYKTTPPVLDSDGSFFLYSKLTVKKSRWQQGNVFSCSVMHEALHNHYTQKSLSLSP
light: B1 light
B7: A375-SCF028/B167-Lamlib (antibody, human IgG1, lambda)
heavy: B6 heavy with G242D, I269V
light: B1 light

Biological target: T4, human FcgRIa extracellular domain (human, UniProt P12314 16-292)
T4 construct: extracellular domain; also called hFcgRIa
Test: SPR 25C
Description: (§1) Biacore T200 (GE Healthcare) was used to evaluate the binding activity to the respective human Fcγ receptor (hereafter referred to as FcγR). Measurement was performed at 25° C. using 50 mM phosphate, 150 mM NaCl, 0.05 w/v %-P20, pH 7.4 as buffer. About 1000 RU of antibody was captured using a sensor chip immobilized with CaptureSelect™ Human Fab-lambda Kinetics Biotin Conjugate (Thermo Fisher Scientific) as a molecule for ligand capturing. Human FcγR was diluted to 8 nM for FcγRIa and 1000 nM for other FcγR in the measurement buffer, and it was interacted to the captured antibody. The binding activity of each antibody to FcγR was assessed by calculating the binding amount of FcγR (RU) per unit amount of antibody using Biacore T200 Evaluation Software 2.0.

T4 sequence (P12314 16-292): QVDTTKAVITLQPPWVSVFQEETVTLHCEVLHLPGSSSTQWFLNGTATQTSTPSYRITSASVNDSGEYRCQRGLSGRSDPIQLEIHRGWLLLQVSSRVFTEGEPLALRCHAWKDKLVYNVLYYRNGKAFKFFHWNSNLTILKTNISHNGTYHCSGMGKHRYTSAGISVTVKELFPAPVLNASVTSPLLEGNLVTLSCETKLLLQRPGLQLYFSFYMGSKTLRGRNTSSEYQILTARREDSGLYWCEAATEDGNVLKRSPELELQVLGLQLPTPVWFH

binding per 1RU antibody [RU] | relative binding (A375-G1T3/B167-Lamlib=1) | Binder
0.0033 | 0.04 | B1
0.0937 | 1.15 | B2
0.0022 | 0.03 | B3
0.0962 | 1.18 | B4
0.0021 | 0.03 | B5
0.0044 | 0.05 | B6
0.0027 | 0.03 | B7

Biological target: T1, human FcgRIIa type H extracellular …
Test: SPR 25C
Description: as §1

binding per 1RU antibody [RU] | relative binding (A375-G1T3/B167-Lamlib=1) | Binder
0.0479 | 0.84 | B1
0.0497 | 0.88 | B2
0.0514 | 0.91 | B3
0.0029 | 0.05 | B4
0.0514 | 0.91 | B5
0.0031 | 0.06 | B6
0.0101 | 0.18 | B7

Biological target: T2, human FcgRIIa type R extracellular …
Test: SPR 25C
Description: as §1

binding per 1RU antibody [RU] | relative binding (A375-G1T3/B167-Lamlib=1) | Binder
0.047 | 1.01 | B1
0.168 | 3.62 | B2
0.0519 | 1.12 | B3
0.0371 | 0.8 | B4
0.0518 | 1.12 | B5
0.0058 | 0.12 | B6
0.0299 | 0.64 | B7

Biological target: T3, human FcgRIIb extracellular domain
Test: SPR 25C
Description: as §1

binding per 1RU antibody [RU] | relative binding (A375-G1T3/B167-Lamlib=1) | Binder
0.0489 | 4.46 | B1
0.156 | 14.3 | B2
0.0512 | 4.67 | B3
0.143 | 13 | B4
0.0511 | 4.67 | B5
0.0766 | 6.99 | B6
0.0995 | 9.08 | B7

Biological target: T5, human FcgRIIIa F158 extracellular domain (human, UniProt P08637 17-208)
T5 construct: extracellular domain; also called hFcgRIIIaF
Test: SPR 25C
Description: as §1

T5 sequence (P08637 17-208): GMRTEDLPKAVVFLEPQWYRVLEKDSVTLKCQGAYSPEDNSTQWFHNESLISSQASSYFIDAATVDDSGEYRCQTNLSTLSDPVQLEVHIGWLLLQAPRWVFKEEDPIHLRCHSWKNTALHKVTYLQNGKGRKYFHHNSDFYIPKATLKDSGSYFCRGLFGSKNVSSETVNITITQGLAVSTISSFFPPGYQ

binding per 1RU antibody [RU] | relative binding (A375-G1T3/B167-Lamlib=1) | Binder
0.0006 | 0.03 | B1
0.0056 | 0.26 | B2
0.0012 | 0.06 | B3
0.0001 | 0 | B4
0.0009 | 0.04 | B5
-0.0005 | -0.02 | B6
-0.0009 | -0.04 | B7

Biological target: T6, human FcgRIIIa V158 extracellular domain (human, UniProt P08637 17-208)
T6 construct: extracellular domain; also called hFcgRIIIaV
Test: SPR 25C
Description: as §1

T6 sequence (P08637 17-208 F176V): as the sequence (P08637 17-208) above, with F160V counted along it

binding per 1RU antibody [RU] | relative binding (A375-G1T3/B167-Lamlib=1) | Binder
0.0009 | 0.01 | B1
0.0019 | 0.03 | B2
0.0014 | 0.02 | B3
0.0001 | 0 | B4
0.0016 | 0.02 | B5
-0.0006 | -0.01 | B6
-0.001 | -0.01 | B7

Biological target: human FcRn (human, UniProt P55899 24-290; P61769 21-119)
Test: SPR 25C pH 6.0, steady state
Description: Biacore T200 (GE Healthcare) was used to assess the binding activity to human FcRn. Measurement was performed at 25° C. using 50 mM phosphate, 150 mM NaCl, 0.05 w/v %-P20, pH 6.0 as buffer. Human FcRn proteins used for this determination were prepared by the procedure described in WO2010107110. About 400 RU of antibody was captured using a sensor chip immobilized with CaptureSelect™ Human Fab-lambda Kinetics Biotin Conjugate (Thermo Fisher Scientific) as a molecule for ligand capturing, followed by the binding of human FcRn diluted in measuring buffer. The activity of the respective antibodies to bind FcRn was assessed by calculating KD(mol/L) by the steady-state model using Biacore T200 Evaluation Software 2.0.

Kd [µM] | Binder
1.32 | B1
1.42 | B2
1.1 | B3
1.7 | B4
1.13 | B5
1.33 | B6
1.27 | B7
